Reference: US20230120736A1, “ANTI-CD98 ANTIBODIES AND ANTIBODY DRUG CONJUGATES” (AbbVie Inc., priority 2016, published 2023)
Marks after values point to notes of the source that are not given here.

Assays:
[1] = Size exclusion chromatography, % aggregate fraction of ADC; type: physicochemical; details: hybridoma mAb conjugated with synthon CZ, Method A
Description: Size exclusion chromatography was performed using a Shodex KW802.5 column in 0.2M potassium phosphate pH 6.2 with 0.25 mM potassium chloride and 15% IPA at a flow rate of 0.75 ml/min. The peak area absorbance at 280 nm was determined for each of the high molecular weight and monomeric eluents by integration of the area under the curve. The % aggregate fraction of the conjugate sample was determined by dividing the peak area absorbance at 280 nm for the high molecular weight eluent by the sum of the peak area absorbances at […] of the high molecular weight and monomeric eluents multiplied by 100%.

[2] = tested on: HCC38 breast cancer cell line; assay: Growth inhibition assay (CellTiter-Glo); details: read-out: ADC potency, IC50, HCC38, 4-days treatment, 3000 cells per well
[3] = tested on: Jurkat acute T cell leukemia cell line; assay: Growth inhibition assay (CellTiter-Glo); details: read-out: ADC potency, IC50, Jurkat, 5-days treatment, 3000 cells per well
[4] = tested on: EBC-1 (human lung squamous cell carcinoma) xenograft; assay: EBC-1 xenograft tumor growth inhibition; type: in vivo, mouse; details: SCID-bg mice; for Growth Inhibition TGImax / Response Frequency CR / Response Frequency PR / Tumor growth delay (TGD): 10 mg/kg IP QDx1; for Response Frequency OR: 10 mg/kg IP QDx1, sum of CR and PR
Description: To refer to efficacy of therapeutic agents, parameters of amplitude (TGImax), durability (TGD) and response frequency (CR, PR, OR) of therapeutic response are used. […] In the tables, to refer to efficacy, parameters of amplitude (TGImax) and durability (TGD) of therapeutic response are used. TGImax is the maximum tumor growth inhibition during the experiment. Tumor growth inhibition is calculated by 100*(1−Tv/Cv) where Tv and Cv are the mean tumor volumes of the treated and control groups, respectively. TGD or tumor growth delay is the extended time of a treated tumor needed to reach a volume of 1 cm^3 relative to the control group. TGD is calculated by 100*(Tt/Ct−1) where Tt and Ct are the median time periods to reach 1 cm^3 of the treated and control groups, respectively. Distribution of the response amplitude in a specific group is given by the frequency of complete responders (CR), partial responders (PR), and overall responders (OR). CR is the percentage of mice within a group with a tumor burden of 25 mm^3 for at least three measurements. PR is the percentage of mice within a group with a tumor burden larger than 25 mm^3 but less than one-half of the volume at onset of treatment for at least three measurements. OR is the sum of CR and PR.
EBC-1 was obtained from the Japanese Collection of Research Bioresources Cell Bank (JCRB, Osaka, Japan) and were cultured using MEM culture media with 10% FBS. To generate xenografts, 5×10^6 EBC-1 viable cells were inoculated subcutaneously into the right flank of immune deficient female SCID-bg mice (Charles River Laboratories, Wilmington, Mass.). The injection volume was 0.2 mL and the inoculum was composed of 1:1 mixture of S-MEM and Matrigel. Tumors were size matched at approximately 200 mm^3. Antibodies and conjugates were formulated in phosphate buffered saline, pH 7.2 and injected intraperitoneally. […] Therapy began within 24 hours after size matching of the tumors. Mice weighed approximately 21-22 g at the onset of therapy. Tumor volume was estimated two to three times weekly. Measurements of the length (L) and width (W) of the tumor were taken via electronic caliper and the volume was calculated according to the following equation: V=L×W^2/2. Mice were euthanized when tumor volume reached 3,000 mm^3 or skin ulcerations occurred. Eight mice were housed per cage. Food and water were available ad libitum. Mice were acclimated to the animal facilities for a period of at least one week prior to commencement of experiments. Animals were tested in the light phase of a 12-hour light: 12-hour dark schedule (lights on at 06:00 hours). Anti-CD98 conjugates (10 mg/kg) were administered as a single dose (QDx1) intraperitoneally. A human IgG control antibody (AB095, a human IgG1 antibody recognizing tetanus toxoid See Larrick et al., 1992, Immunological Reviews 69-85) was used as a negative control agent.
To refer to efficacy of therapeutic agents, parameters of amplitude (TGImax), durability (TGD) and response frequency (CR, PR, OR) of therapeutic response are used as described in the Example 6.

Molecule	% Aggregates by SEC [1]	IC50 [2]	IC50 [3]	Growth Inhibition TGImax [4]	Response Frequency CR [4]	Response Frequency PR [4]	Tumor growth delay (TGD) [4]	Response Frequency OR [4]
Ab13-CZ (conjugate) VH: QVQLKESGPGLVQPSQTLSLTCTVSGFSLSSYGVIWVRQPPGKGLEWMGIIWANGNTNYNSALKSRLSISRDTSKSQVYLKMNSLQTEDTATYYCARHYYDGTHYYGYFDYWGQGVMVTVSS VL: DTVMTQTPSSQAVSAGEKVTMSCKSSQSLLYSENKKKYLAWYQQKPGQSPKLLIYWASTRESGVPDRFIGSGSGTDFTLTISSVQAEDLAVYYCQQYYNFPYTFGAGTKLELK	4.7%	0.787 nM	0.149 nM					
Ab14-CZ (conjugate) VH: EVKLQQSGDELVRPGASVKISCKASGYTFTSYSMHWVKERPGQGLEWIGAIFPIIGTTEYNQKFKGKATLTADKSSNTANMELSRLTSEDSAVYYCARVYLSYFDYWGQGVMVTVSS VL: DIQMTQSPSFLSASVGDRVTINCKASQNINKYLDWYQRKHGEAPKLLIYNTNNLQTGIPSRFSGSGSGTDYTLTISSLQPEDVATYFCLQHSSRYTFGAGTKLELK	8.8%	0.798 nM	0.063 nM					
Ab10-CZ (conjugate) VH: EVQLVESGGGLVQPGRSLKLSCAASGFTFSDYAMAWVRQAPKKSLEWVATIIYDGRGTYCRDSVKGRFTISRDNAKSTLYLQMDSLRSEDTATYYCARQGDGTYHYWGYFDYWGQGVMVTVSS VL: DIVMTQSPSSLAVSAGETVTINCKSSQSLLSSGNQKNYLAWYQQKPGQSPKLLIYWASTRQSGVPDRFIGSGSGTDFTLTISSVQAEDLAIYYCQQYYDTPYTFGAGTKVDLK	4.7%	1.16 nM	0.148 nM					
ChAb15-CZ (conjugate) VH: EVQLVESGGGLVQPGRSLKLSCAASGFTFSDYTMAWVRQAPKKGLEWVATIIYDGRGTYYRDSVKGRFTISRDNAKSTLYLQMDSLRSEDTATYYCARQSDGTYYYWGYFDYWGQGVMVTVSS VL: DIVMTQSPSSLAVSAGETVTINCKSSQSLLFSGNQKNYLAWYQQKPGQSPKLLIYWASTRQSGVPDRFIGSGSGTDFTLTIRSVQAEDLAIYYCQQYYDSPYTFGAGTKLELK				70* %	0%	0%	74* %	0%
Ab11-CZ (conjugate) VH: EVQLVESGGGLVQPGRSLKLSCAASGFTFSDYAMAWVRQAPKKGLEWVAGIIYDGRGTYYRDSVKGRFTISRDNAKSTLYLQMDSLRSEDTATYYCARQGDGTYYYWGYFDYWGQGVMVTVSS VL: DIVMTQSPSSLAVSAGETVTINCRSSQSLLSSGNQKNYLAWYQQKPGQSPKLLIYWASTRQSGVPDRFIGSGSGTDFTLTISSVQAEDLAIYYCQQYYDTPYTFGAGTKLELK	4.2%	1.14 nM	0.311 nM					
ChAb12-CZ (conjugate) VH: EVQLVESGGGLVQPGRSLKLSCAASGFTFSDYAMAWVRQAPKKGLEWVASIIYDGRGTYYRDSVKGRFTISRDNAKSTLYLQMDSLRSEDTATYYCARQGDGTYYYWGSFDYWGQGVMVTVSS VL: DIVMTQSPSSLAVSAGETVTINCKSSQSLLSSGNQKNYLAWYQQKPGQSPKLLIYWASTRQSGVPDRFIGSGSGTDFTLTISSVQAEDLAIYHCQQYYDTPYTFGAGTKLELK				76* %	0%	25%	74* %	25%
Ab12-CZ (conjugate) VH: EVQLVESGGGLVQPGRSLKLSCAASGFTFSDYAMAWVRQAPKKGLEWVASIIYDGRGTYYRDSVKGRFTISRDNAKSTLYLQMDSLRSEDTATYYCARQGDGTYYYWGSFDYWGQGVMVTVSS VL: DIVMTQSPSSLAVSAGETVTINCKSSQSLLSSGNQKNYLAWYQQKPGQSPKLLIYWASTRQSGVPDRFIGSGSGTDFTLTISSVQAEDLAIYHCQQYYDTPYTFGAGTKLELK	2.9%	0.685 nM	0.094 nM					
Ab15-CZ (conjugate) VH: EVQLVESGGGLVQPGRSLKLSCAASGFTFSDYTMAWVRQAPKKGLEWVATIIYDGRGTYYRDSVKGRFTISRDNAKSTLYLQMDSLRSEDTATYYCARQSDGTYYYWGYFDYWGQGVMVTVSS VL: DIVMTQSPSSLAVSAGETVTINCKSSQSLLFSGNQKNYLAWYQQKPGQSPKLLIYWASTRQSGVPDRFIGSGSGTDFTLTIRSVQAEDLAIYYCQQYYDSPYTFGAGTKLELK	5.7%	1.06 nM	0.076 nM					
